Experimental data taken from US20060148057A1, “Thioredoxin mutants and uses thereof” (priority 2002, published 2006).

Test system: caspase 3
Assay: ASK1-induced caspase 3 activity assay in BAEC (Ac-DEVD-AMC substrate)
Assay type: cell-based, Bovine
Conditions: co-expression with ASK1; n=4, p<0.05
Method: Caspase 3 activity assay: Caspase 3 activity was measured with a Caspase 3 fluorescence kit (Sigma) according to the Manufacturer's protocol. Briefly, BAEC were harvested in Caspase 3 lysis buffer (25 mM Hepes, pH 7.4, 5 mM CHAPS, 5 mM DTT) and incubated on ice for 15-20 min followed by a centrifugation at 14,000× g for 10-15 min at 4° C. For each reaction, 5 μl (200 μg) of cell lysate was incubated with 200 μl of 16 μM Caspase 3 peptide substrate acetyl-ASP-Glu-Val-Asp-7 amido-4-methylcoumarin (Ac-DEVD-AMC) in the assay buffer (25 mM Hepes, pH 7.4, 5 mM EDTA, 0.1% CHAPS, 5 mM DTT) in the presence or absence of 100 μM Caspase 3 inhibitor (Ac-DEVD-CHO). The reaction was incubated in the dark for 1-1.5 h and fluorescence was measured in a fluorescence plate reader. The measured fluorescence was used as an arbitrary unit.
Then the effects. of Trx on ASK1-induced caspase 3 activation, a hallmark of the execution of apoptotic cell death (Green D R. Apoptotic pathways: paper wraps stone blunts scissors. Cell. 102:1-4 (2000); Hengartner MO. The biochemistry of apoptosis. Nature. 407:770-6 2000)) was examined. Caspase 3 activity was determined by an in vitro assay using peptide substrate acetyl-ASP-Glu-Val-Asp-7 amido-4-methylcounarin (Ac-DEVD-AMC). Overexpression of ASK1 in BAEC increased caspase 3 activity compared to the control cells (FIG. 6B).

B1: Trx-CS: double-mutant of C32S and C35S of Trx (protein)
chain: MVKQIESKTAFQEALDAAGDKLVVVDFSATWSGPSKMIKPFFHSLSEKYSNVIFLEVDVDDCQDVASECEVKCMPTFQFFKKGQKVGEFSGANKEKLEATINELV
modifications: left off: a dimerising Fc or GST; large carriers; small tags and cut ends
  inhibition of ASK1-induced caspase 3 activity: failed to block
